In US20230277625A1 (SIMCHA IL 18, published 2023):

T1: Human IL-18BP (amino acids 31-194), biotinylated (human, UniProt O95998 31-194, biotin on the AviTag (BirA ligase) where used biotinylated)
T1 construct: Soluble decoy receptor; also called hIL-18BP; recombinant IL-18BP
T1 sequence: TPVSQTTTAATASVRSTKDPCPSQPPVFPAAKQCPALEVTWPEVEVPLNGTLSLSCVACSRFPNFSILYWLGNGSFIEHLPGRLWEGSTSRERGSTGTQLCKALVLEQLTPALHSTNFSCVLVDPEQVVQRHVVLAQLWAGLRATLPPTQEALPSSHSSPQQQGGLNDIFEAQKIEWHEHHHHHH

T2: Mouse IL-18Rα ectodomain (amino acids 19-329), biotinylated (mouse, UniProt Q61098 19-329, biotin on the AviTag (BirA ligase))
T2 construct: range 19-329; Secreted from Expi293 cells (H7 signal peptide removed); also called mIL-18Rα; mIL18Ra
T2 sequence: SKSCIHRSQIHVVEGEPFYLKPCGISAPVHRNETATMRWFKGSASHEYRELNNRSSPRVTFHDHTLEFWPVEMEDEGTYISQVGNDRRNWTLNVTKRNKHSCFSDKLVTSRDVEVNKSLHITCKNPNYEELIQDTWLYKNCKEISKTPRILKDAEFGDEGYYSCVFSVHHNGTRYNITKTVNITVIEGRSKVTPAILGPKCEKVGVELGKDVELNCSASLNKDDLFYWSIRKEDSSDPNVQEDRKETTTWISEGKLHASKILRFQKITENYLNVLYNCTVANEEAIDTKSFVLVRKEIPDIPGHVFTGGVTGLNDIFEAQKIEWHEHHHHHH

T3: Mouse IL-18BP (amino acids 31-194), biotinylated (mouse, UniProt Q9Z0M9 29-193, biotin on the AviTag (BirA ligase))
T3 construct: also called mIL-18BP
T3 sequence: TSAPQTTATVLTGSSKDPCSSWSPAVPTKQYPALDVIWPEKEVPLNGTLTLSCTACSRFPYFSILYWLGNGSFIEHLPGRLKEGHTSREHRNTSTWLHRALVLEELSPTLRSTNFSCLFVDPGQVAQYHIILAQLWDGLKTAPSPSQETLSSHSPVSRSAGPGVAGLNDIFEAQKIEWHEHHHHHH

B1: SEQ ID NO: 88 (second generation human DR-IL-18 variant 6-20) (ligand)
chain: YFGKLESKLSVIRNLNDQVLFIDQGNRPLFEDMTDSDCRDNAPRTIFIISKYGDSRPRGMAVTISVKCEKISTLSCENKIISFKEMNPPDNIKDTKSDIIFFQRAVPGHNRKMQFESSSYEGYFLACEKERDLFKLILKKEDELGDRSIMFTVQNED
notes: Engineered variant
B2: SEQ ID NO: 61 (murine DR-IL-18 variant mCS2) (ligand)
chain: HFGRLHCTTAVIRNINDQVLFVDKRQPVFEDMTDIDQSASEPQTRLIIYAYGDSRARGKAVTLSVKDSKMSTLSCKNKIISFEEMDPPENIDDIQSDLIFFQKRVPGHNKMEFESSLYEGHFLACQKEDDAFKLILKKKDENGDKSVMFTLTNLHQS
notes: Engineered variant

Columns and labels:
[1] = molecular target: T1, Human IL-18BP (amino acids 31-194), …; experiment: on-yeast binding isotherm (flow cytometry)
[2] = molecular target: T1, Human IL-18BP (amino acids 31-194), …; experiment: on-yeast binding isotherm (flow cytometry), drawn summary table, column IL18BP (KD); IL18Rα column reads N.D.
[3] = molecular target: T2, Mouse IL-18Rα ectodomain (amino acids …); experiment: SPR
[4] = molecular target: T2, Mouse IL-18Rα ectodomain (amino acids …); experiment: on-yeast binding isotherm (flow cytometry)
Experimental: (§1) Individual colonies of IL-18 yeast were grown overnight at 30° C. in SDCAA liquid media and induced in SGCAA liquid media for 1 day at 20° C. IL-18 display levels on yeast were verified by flow cytometry using an anti-cMyc tag antibody (anti-myc-PE; Cell Signaling Technologies). Receptor staining with biotinylated IL-18Rα (with or without IL-18R β) or biotinylated IL-18BP was performed in PBS supplemented with 0.5% BSA and 2 mM EDTA (PBE) on ice. All analysis was performed on a Sony SA3800 flow cytometer.

[5] = molecular target: T3, Mouse IL-18BP (amino acids 31-194), …; experiment: SPR; KD(IL-18BP)/KD(IL-18Rα) normalized to WT IL-18
[6] = molecular target: T3, Mouse IL-18BP (amino acids 31-194), …; experiment: yeast binding isotherms and SPR; members per FIG. 11A legend
Experimental: as §1
(§2) Experiments were conducted using a Biacore T100 and carried out at 25° C. Biotinylated IL-18Rα or IL-18BP were immobilized onto a Biacore biotin capture chip (Series S CAP sensor chip, GE Healthcare) to yield an Rmax of ˜50 RU (IL-18Rα) or ˜10 RU (IL-18BP). Measurements were made with serial dilutions of the IL-18 variants in HEPES buffered Saline-P+buffer (10 mM HEPES pH 7.4, 150 mM NaCl, 0.005% surfactant P20). The surface was regenerated by three 60-sec injections of regeneration buffer (3/4 (v/v) 8M guanidine hydrochloride with 1/4 (v/v) 1M sodium hydroxide). Experiments were performed in multiple channels simultaneously for increased observations. All data were analyzed with the Biacore T100 evaluation software version 2.0 with a 1:1 Langmuir binding model.

[7] = molecular target: T3, Mouse IL-18BP (amino acids 31-194), …; experiment: SPR; KD ratio relative to WT IL-18; SPR; ratio normalized to WT
Experimental: as §2

[8] = molecular target: T2, Mouse IL-18Rα ectodomain (amino acids …); experiment: SPR (Biacore T100), receptor captured via biotin, IL-18 as analyte
Experimental: as §2

[9] = molecular target: T3, Mouse IL-18BP (amino acids 31-194), …; experiment: SPR; KD for IL-18BP over KD for IL-18Rα; SPR; ratio of two measured KD
Experimental: as §2

[10] = molecular target: T3, Mouse IL-18BP (amino acids 31-194), …; experiment: SPR (Biacore T100), IL-18BP captured via biotin, IL-18 as analyte; SPR, soluble variant
Experimental: as §2

[11] = molecular target: T3, Mouse IL-18BP (amino acids 31-194), …; experiment: on-yeast binding isotherms; 10 µM used for NBD; yeast-displayed variant; ratio computed with 10 µM put in for NBD
Experimental: as §1

[12] = molecular target: T3, Mouse IL-18BP (amino acids 31-194), …; experiment: on-yeast binding isotherms; KD ratio relative to WT IL-18; yeast-displayed variant; ratio normalized to WT, from the 10 µM placeholder
Experimental: as §1

[13] = molecular target: T3, Mouse IL-18BP (amino acids 31-194), …; experiment: SPR, immobilized biotinylated mIL-18BP, mCS2 as analyte; traces stay at or below about 2 RU during the injection (0 to about 180 s) on a 0-40 RU axis
Experimental: as §2

| Binder | Kd [1] | Kd [2] | Kd [3] | Kd [4] | IL-18 BP:Rα Dissociation Constant Ratio [5] | Kd [6] | Dissociation Constant Ratio normalized to WT IL-18 [7] | Kd [8] | KD ratio IL-18BP/IL-18Rα [9] | Kd [10] | KD ratio IL-18BP/IL-18Rα [11] | Dissociation Constant Ratio normalized to WT IL-18 [12] | Kd [13] |
| --- | --- | --- | --- | --- | --- | --- | --- | --- | --- | --- | --- | --- | --- |
| B1 | 340 nM | 340 nM |  |  |  |  |  |  |  |  |  |  |  |
| B2 |  |  | 0.08 nM | 11.3 nM | > 7.5e+07 | > 1000 nM | 7.25e+07 | 0.079 nM | 133000 | 10500 nM | > 885 | > 4690 | > 10000 nM |
